Target: HA76Cda1 (Cda1 with the HA epitope inserted at position 76) (Ustilago maydis)
Assay: FRET or BRET

Q: How did the FRET efficiency turn out when “DyLight 550-labeled AFP1-His (AFP1^550) (natural protein)” was run?
A: 23%

From article PMC10128019
